Measured values: article PMC11005340

Key:
[1] = molecular target: HIV-1AD8 Env N332E (HIV-1 (strain AD8))
[2] = molecular target: HIV-1AD8 Env N332L (HIV-1 (strain AD8))
[3] = molecular target: HIV-1AD8 Env N332Y (HIV-1 (strain AD8))

Measured: neutralisation of pseudovirus infection of Cf2-Th/CD4+CCR5+ cells, IC50 (one of the three changes with the highest resistance to PGT121)

PGT121 (antibody)
< 1 µg/mL: all assays above
